The values that follow come from publication PMC13345634, “Dynamic assembly of malate dehydrogenase–citrate synthase multienzyme complex in the mitochondria” (eLife, 2026).

For assay [1], the target named is T1, recombinant MDH1 (without the mitochondrial targeting signal, C-terminal 6x His tag), fluorescently labeled (S. cerevisiae, UniProt P17505 18-334, fluorescent label (Protein Labeling Kit RED-NHS 2nd Generation)).
T1 chain: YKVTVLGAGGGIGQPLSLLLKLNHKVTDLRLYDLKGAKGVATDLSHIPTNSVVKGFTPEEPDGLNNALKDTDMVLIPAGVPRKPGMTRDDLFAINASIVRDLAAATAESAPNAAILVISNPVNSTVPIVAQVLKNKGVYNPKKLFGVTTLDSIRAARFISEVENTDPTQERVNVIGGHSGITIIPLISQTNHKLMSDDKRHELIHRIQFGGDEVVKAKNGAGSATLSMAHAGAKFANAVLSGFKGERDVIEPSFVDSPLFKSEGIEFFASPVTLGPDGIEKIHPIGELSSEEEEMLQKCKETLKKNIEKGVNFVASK
The experiment in a line: MST; 10 mM fumarate.

For assay [2], the target named is T1, recombinant MDH1 (without the …). Nature of the assay: MST; 10 mM malate.
The target is the same in assay [3]. Nature of the assay: MST; pH 6.8.
For assay [4] the target is unchanged. Nature of the assay: MST; control (no metabolite).
For assay [5], the target named is T2, recombinant CIT1 (without the mitochondrial targeting signal, C-terminal 6x His tag) (S. cerevisiae, UniProt P00890 38-479).
T2 construct: By the primers and the NdeI/XhoI sites of pET21b the chain should begin with an added Met and carry LE before the His6; also called recombinant yeast CIT1; pET-cit1; source: E. coli BL21 (DE3), pET21b, purified (Ni-NTA His SpinTrap columns)
T2 sequence (looked up): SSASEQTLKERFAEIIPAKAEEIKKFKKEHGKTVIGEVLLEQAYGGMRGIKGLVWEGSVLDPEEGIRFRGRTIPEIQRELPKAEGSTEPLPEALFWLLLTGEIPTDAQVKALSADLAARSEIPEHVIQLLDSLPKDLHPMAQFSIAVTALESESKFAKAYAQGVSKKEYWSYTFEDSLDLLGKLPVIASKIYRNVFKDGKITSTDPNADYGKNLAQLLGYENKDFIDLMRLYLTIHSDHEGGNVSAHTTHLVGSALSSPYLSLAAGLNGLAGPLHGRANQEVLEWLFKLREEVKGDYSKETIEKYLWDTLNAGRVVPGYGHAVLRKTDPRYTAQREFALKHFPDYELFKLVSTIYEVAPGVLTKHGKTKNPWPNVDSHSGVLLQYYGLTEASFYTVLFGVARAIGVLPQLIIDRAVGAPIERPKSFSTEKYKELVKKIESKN
Nature of the assay: MST; fluorescently labeled MDH1 as the target, CIT1 as the ligand (two-fold serial dilution of 80 µM, 16 concentrations); Monolith NT.115, room temperature; 50 mM Tris, 150 mM NaCl, 10 mM MgCl2, 5 mM DTT, 0.05% Tween-20; pH 6.0. As to conditions: both partners purified.

The target of assay [6] is T2, recombinant CIT1 (without the …). Nature of the assay: MST; fluorescently labeled MDH1 as the target, CIT1 as the ligand (two-fold serial dilution of 80 µM, 16 concentrations); Monolith NT.115, room temperature; 50 mM Tris, 150 mM NaCl, 10 mM MgCl2, 5 mM DTT, 0.05% Tween-20; pH 7.2. As to conditions: both partners purified.
For assay [7] the target is unchanged. The experiment in a line: MST; fluorescently labeled MDH1 as the target, CIT1 as the ligand (two-fold serial dilution of 80 µM, 16 concentrations); Monolith NT.115, room temperature; 50 mM Tris, 150 mM NaCl, 10 mM MgCl2, 5 mM DTT, 0.05% Tween-20; pH 6.4. The settings on record: both partners purified.

B1: recombinant CIT1 (without the mitochondrial targeting signal, C-terminal 6x His tag) (enzyme)
chain: SSASEQTLKERFAEIIPAKAEEIKKFKKEHGKTVIGEVLLEQAYGGMRGIKGLVWEGSVLDPEEGIRFRGRTIPEIQRELPKAEGSTEPLPEALFWLLLTGEIPTDAQVKALSADLAARSEIPEHVIQLLDSLPKDLHPMAQFSIAVTALESESKFAKAYAQGVSKKEYWSYTFEDSLDLLGKLPVIASKIYRNVFKDGKITSTDPNADYGKNLAQLLGYENKDFIDLMRLYLTIHSDHEGGNVSAHTTHLVGSALSSPYLSLAAGLNGLAGPLHGRANQEVLEWLFKLREEVKGDYSKETIEKYLWDTLNAGRVVPGYGHAVLRKTDPRYTAQREFALKHFPDYELFKLVSTIYEVAPGVLTKHGKTKNPWPNVDSHSGVLLQYYGLTEASFYTVLFGVARAIGVLPQLIIDRAVGAPIERPKSFSTEKYKELVKKIESKN
On to B1, for which the Kd in assay [1] was found to be 288 nM; in assay [2] it was 367 nM; in assay [3], 2720 nM; in assay [4], 6070 nM.

B2: recombinant MDH1 (without the mitochondrial targeting signal, C-terminal 6x His tag), fluorescently labeled (enzyme, S. cerevisiae, UniProt P17505 18-334, looked up)
chain: YKVTVLGAGGGIGQPLSLLLKLNHKVTDLRLYDLKGAKGVATDLSHIPTNSVVKGFTPEEPDGLNNALKDTDMVLIPAGVPRKPGMTRDDLFAINASIVRDLAAATAESAPNAAILVISNPVNSTVPIVAQVLKNKGVYNPKKLFGVTTLDSIRAARFISEVENTDPTQERVNVIGGHSGITIIPLISQTNHKLMSDDKRHELIHRIQFGGDEVVKAKNGAGSATLSMAHAGAKFANAVLSGFKGERDVIEPSFVDSPLFKSEGIEFFASPVTLGPDGIEKIHPIGELSSEEEEMLQKCKETLKKNIEKGVNFVASK
modifications: fluorescent label (Protein Labeling Kit RED-NHS 2nd Generation)
notes: By the primers and the NdeI/XhoI sites of pET21b the chain should begin with an added Met and carry LE before the His6; also called recombinant yeast MDH1; labeled MDH1; source: E. coli BL21 (DE3), pET21b, purified (Ni-NTA His SpinTrap columns)
B2: the Kd in assay [5] turned out to be 33 nM; in assay [6] it was 3480 nM; in assay [7], 223 nM.

A word on the Kd: it is the free concentration of one partner at which half of the binding sites on the other are occupied at equilibrium, for simple one-to-one binding.
